Assays:
[1] = molecular target: Recombinant human PD-L1 (Sino Biological Inc.) (human, UniProt Q9NZQ7 19-239); test: binding specificity ELISA, coated recombinant human PD-L1, anti-human IgG-HRP
Experimental: (§1) The plate was washed five times with PBST and blocked with 300 μL/well of PBST containing 1% BSA and incubated at 25° C. for 1 hour. The plate was washed five times with PBST. […] The plate was washed five times with PBST. Then, horseradish peroxidase-labeled anti-human IgG antibody (Chemicon, Catalog Number AP309P) 1:2000 diluted in PBST containing 1% BSA was added, 100 μL was added to each well, incubated at 25° C. for 1 hour. The plate was washed five times with PBST. 100 μL/well of colorimetric substrate TMB was added and incubated at room temperature for 10 minutes. Color development was terminated by adding 100 μL/well of 1 M H₂SO₄. The absorbance at 450 nm was read on a microplate reader.

[2] = molecular target: T1, Recombinant human PD-1 (Sino Biological Inc., Catalog Number 10377-H08H) (human, UniProt Q15116 25-167); test: SPR (Biacore X100), antibody captured on anti-human IgG CM5 chip, PD-1 as analyte
T1 construct: Bought protein; also called antigen PD-1
Experimental: The instrument utilizes an optical surface plasmon resonance technique to detect association and dissociation between a molecule coupled on a sensor chip and an analyte. CM5 chips (GE Healthcare, BR-1000-12) were used. […] In the association phase, the antigen PD-1 was diluted to multiple concentrations with a running buffer, and injected at a rate of 30 μL/min for 180 seconds. In the dissociation phase, the duration of the dissociation was 1200 seconds. Glycine solution (GE Healthcare, BR-1003-54) was used to regenerate for 30 seconds at a speed of 10 μL/min. […] Association rate constant and dissociation rate constant were analyzed and calculated by Biacore X100 evaluation software.

[3] = molecular target: T2, Recombinant human PD-L2 (Sino Biological Inc.) (human, UniProt Q9BQ51 20-220); test: binding specificity ELISA, coated recombinant human PD-L2, anti-human IgG-HRP
T2 sequence (looked up): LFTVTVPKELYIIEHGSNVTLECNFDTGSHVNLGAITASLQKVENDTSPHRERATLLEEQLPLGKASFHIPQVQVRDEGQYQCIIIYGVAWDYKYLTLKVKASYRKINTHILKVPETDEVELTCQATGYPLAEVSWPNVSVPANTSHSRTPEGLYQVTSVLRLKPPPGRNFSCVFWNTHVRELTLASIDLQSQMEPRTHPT
Experimental: as §1

[4] = molecular target: T1, Recombinant human PD-1 (Sino Biological …); test: ELISA, coated recombinant human PD-1 (1 ug/mL), detection with anti-human IgG-HRP, OD450nm
Experimental: Recombinant human PD-1 (purchased from Sino Biological Inc.) was coated on a 96-well high-absorbing ELISA plate with a carbonate buffer solution with pH 9.6, the coating concentration was 1 μg/mL, the coating amount was 100 μL per well, and the coating was carried out at 4° C. overnight. The plate was washed five times with PBST and blocked with 300 μL/well of PBST containing 1% BSA, and then incubated at 25° C. for 1 hour. The plate was washed five times with PBST. […] The plate was washed five times with PBST. Then, horseradish peroxidase-labeled anti-human IgG antibody (Chemicon, Catalog Number AP309P) 1:2000 diluted in PBST containing 1% BSA was added, 100 μL per well, incubated at 25° C. for 1 hour. The plate was washed five times with PBST. 100 μL/well of colorimetric substrate TMB was added and incubated at room temperature for 10 minutes. Color development was terminated by adding 100 μL/well of 1 M H₂SO₄. The absorbance at 450 nm was read on a microplate reader.

[5] = molecular target: T3, Recombinant human PD-1-Fc (human, UniProt Q15116 25-167, limits assumed); test: competition ELISA, coated human PD-1-Fc, blocked ligand biotin-labeled PD-L1 (final 10 nM), streptavidin-HRP, OD450nm [panel PD-1/PD-L1 Blocking Activity]
T3 construct: also called recombinant human PD-1-Fc protein; not shown: Fc part
Experimental: Recombinant human PD-1-Fc was coated on a 96-well high-absorbing ELISA plate with a carbonate buffer solution with pH 9.6, the coating concentration was 1 μg/mL, the coating amount was 100 μL per well, and the coating was carried at 4° C. out overnight. The plate was washed five times with PBST and blocked with 300 μL/well of PBST containing 1% BSA and incubated at 25° C. for 1 hour. The plate was washed five times with PBST. The positive control and the anti-human PD-1 antibody sample were added, 50 μL per well. […] The plate was washed five times with PBST. Then, Streptavidin-HRP (BD Pharmingen, Catalog Number 554066) 1:1000 diluted in PBST containing 1% BSA was added, 100 μL per well, incubated at 25° C. for 1 hour. The plate was washed five times with PBST. 100 μL/well of colorimetric substrate TMB was added and incubated at room temperature for 10 minutes. Color development was terminated by adding 100 μL/well of 1 M H₂SO₄. The absorbance at 450 nm was read on a microplate reader.

[6] = molecular target: T4, Recombinant human CTLA4 (Sino Biological Inc.) (human, UniProt P16410 36-162); test: binding specificity ELISA, coated recombinant human CTLA4, anti-human IgG-HRP
T4 sequence (looked up): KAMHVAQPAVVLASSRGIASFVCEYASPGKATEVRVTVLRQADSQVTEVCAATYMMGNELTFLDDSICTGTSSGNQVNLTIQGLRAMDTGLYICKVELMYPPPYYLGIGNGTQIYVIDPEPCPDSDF
Experimental: as §1

[7] = molecular target: T5, Recombinant human BTLA (Sino Biological Inc.) (human, UniProt Q7Z6A9 31-157, limits assumed); test: binding specificity ELISA, coated recombinant human BTLA, anti-human IgG-HRP
T5 sequence (looked up): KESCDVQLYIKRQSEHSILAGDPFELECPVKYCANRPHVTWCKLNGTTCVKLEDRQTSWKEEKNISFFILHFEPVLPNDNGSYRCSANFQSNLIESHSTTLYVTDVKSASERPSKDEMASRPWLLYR
Experimental: as §1

T1 sequence (Q15116 25-167 limits assumed): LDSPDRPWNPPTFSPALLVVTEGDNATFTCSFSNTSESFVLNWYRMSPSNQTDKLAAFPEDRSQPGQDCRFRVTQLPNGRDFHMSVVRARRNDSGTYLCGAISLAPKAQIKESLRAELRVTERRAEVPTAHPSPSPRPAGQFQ
Recombinant human PD-L1 (Sino Biological Inc.), sequence (Q9NZQ7 19-239 limits assumed): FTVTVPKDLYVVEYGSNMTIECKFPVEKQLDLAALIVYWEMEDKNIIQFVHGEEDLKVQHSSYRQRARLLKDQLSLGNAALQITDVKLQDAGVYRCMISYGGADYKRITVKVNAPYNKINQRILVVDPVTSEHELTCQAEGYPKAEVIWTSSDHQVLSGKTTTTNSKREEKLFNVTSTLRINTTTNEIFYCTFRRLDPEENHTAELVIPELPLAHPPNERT
T3 sequence (Q15116 25-167 limits assumed): as the sequence (Q15116 25-167 limits assumed) above

binding result [1]: no binding
Kd [2]: 1.37 nM
koff [2]: 0.000295 s⁻¹
kon [2]: 215000 M⁻¹ s⁻¹
binding result [3]: no binding
EC50 [4]: 0.092 nM
IC50 [5]: 0.972 nM
binding result [6]: no binding
binding result [7]: no binding
B1: anti-human PD-1 chimeric monoclonal antibody (antibody, human IgG4 S228P, kappa, V domains shown)
VH: EVQLQESGGGLVKPGGSLKLSCAASGFTFSSYGMSWVRQTPEKRLEWVASISGGGRYTYYPDSMKGRFTISRDNAKNNLHLQMSSLRSEDTALYYCVYEYFYTMDYWGQGTSVTVSS
VL: DIVLTQSPATLSVTPGDSVSLSCRANQSISNNLHWYQQRSHESPRLLIRFASQSISGIPSRFSGSGSGTDFTLSINSVETEDFGMYFCQQSDNWPLTFGAGTKLEIKR
notes: expressed in 293F cells; also called Anti-human PD-1 Chimeric Antibody; chimeric anti-human PD-1 monoclonal antibody
